These results are taken from US20150147270A1.

Experiment [1] has as its target mouse F4/80 receptor expressed on macrophages (RAW 264.7 cells) (mouse) (UniProt Q61549). In words: cell-based or functional assay.
Experiment [2] shares this target. In words: SPR (BI-2000), Fab'-covered NPs on a carboxydextran gold chip, RAW 264.7 cells injected at 5k cells/mL.
Experiment [3] has the same target. In words: SPR (BI-2000), Fab'-covered NPs on a carboxydextran gold chip, RAW 264.7 cells injected at 10k cells/mL.
For experiment [4] the target is unchanged. In words: SPR (BI-2000), Fab'-covered NPs on a carboxydextran gold chip, RAW 264.7 cells injected at 2.5k cells/mL.
The target is the same in experiment [5]. In words: SPR (BI-2000), Fab'-covered NPs on a carboxydextran gold chip, RAW 264.7 cells injected at 7.5k cells/mL.
The target is the same in experiment [6]. In words: SPR, antibody-covered NPs coated on a gold chip, Raw 264.7 cells injected. (SPR reads the build-up and loss of mass on a sensor chip optically.)

UniProt Q61549, sequence (Q61549 28-931): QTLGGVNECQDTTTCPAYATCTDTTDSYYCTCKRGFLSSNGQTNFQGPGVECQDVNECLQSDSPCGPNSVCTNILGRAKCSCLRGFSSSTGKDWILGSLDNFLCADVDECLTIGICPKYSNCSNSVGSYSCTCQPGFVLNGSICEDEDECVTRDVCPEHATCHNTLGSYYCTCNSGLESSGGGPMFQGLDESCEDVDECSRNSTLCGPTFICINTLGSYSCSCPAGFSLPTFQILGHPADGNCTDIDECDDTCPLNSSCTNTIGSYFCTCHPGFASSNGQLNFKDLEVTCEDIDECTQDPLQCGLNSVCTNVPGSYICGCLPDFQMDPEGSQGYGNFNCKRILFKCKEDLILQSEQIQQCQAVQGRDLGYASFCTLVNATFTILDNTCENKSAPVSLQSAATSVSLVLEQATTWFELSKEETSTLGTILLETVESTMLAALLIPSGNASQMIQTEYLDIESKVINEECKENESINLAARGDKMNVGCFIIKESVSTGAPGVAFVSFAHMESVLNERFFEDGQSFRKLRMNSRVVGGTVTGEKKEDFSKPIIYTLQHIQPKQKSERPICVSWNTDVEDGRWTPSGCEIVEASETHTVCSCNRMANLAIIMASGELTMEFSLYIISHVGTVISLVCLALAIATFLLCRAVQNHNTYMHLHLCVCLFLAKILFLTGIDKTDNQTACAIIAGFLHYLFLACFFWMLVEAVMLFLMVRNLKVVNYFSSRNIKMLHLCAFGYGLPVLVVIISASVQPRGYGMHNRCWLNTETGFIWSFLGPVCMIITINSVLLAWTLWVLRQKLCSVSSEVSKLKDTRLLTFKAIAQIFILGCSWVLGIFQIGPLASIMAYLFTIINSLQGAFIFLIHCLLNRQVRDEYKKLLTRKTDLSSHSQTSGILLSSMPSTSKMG

Take “Fab' fragment of the F4/80 antibody covalently attached to PLA-PEG nanoparticles”: in experiment [1], the average fluorescent intensity per unit of surface area of RAW 264.7 cells exposed to NPs loaded with FITC-tagged siRNA (15 minutes, 500 ug/mL); non-coated NPs gave 10279 AU/um^2 was 51300 AU/µm^2. Also, the percent of colonic MPs (CD11c(-)CD11b(+)F4/80(+)) with positive FITC signals by flow cytometry after gavage of DSS-treated mice with NPs loaded with FITC-tagged siRNA; non-coated NPs gave 19% in experiment [1] amounted to 28%. In addition, the resonance angle deviation in experiment [2] was 17 mDeg; in experiment [3], 42 mDeg; in experiment [4], 13 mDeg; in experiment [5] it was 33 mDeg.
The substance “mouse F4/80 antibody grafted onto maleimide-polyethyleneglycol-poly(lactic acid) nanoparticles” returned a binding coefficient in experiment [6] of 50.
